The values below come from patent US20010052137.

Data set [1] concerns T1, GID-2/his fusion protein (Xaxin amino acid residues 320-429 with His-epitope tag, from E. coli).
T1 sequence: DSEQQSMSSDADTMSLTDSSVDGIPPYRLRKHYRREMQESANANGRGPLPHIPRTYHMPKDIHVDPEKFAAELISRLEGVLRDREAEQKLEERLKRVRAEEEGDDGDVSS

Data set [2] deals with T2, Myc-tagged GID-2 construct of Xaxin (amino acid residues 320-429).
T2 sequence: T1 sequence

The test system of data set [3] is T3, Myc-tagged GID-3 construct of Xaxin (amino acid residues 320-375).
T3 sequence: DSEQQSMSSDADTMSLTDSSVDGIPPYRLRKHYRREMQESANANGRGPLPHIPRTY

The test system of data set [4] is T4, Myc-tagged GID-4 construct of Xaxin (amino acid residues 350-429).
T4 sequence: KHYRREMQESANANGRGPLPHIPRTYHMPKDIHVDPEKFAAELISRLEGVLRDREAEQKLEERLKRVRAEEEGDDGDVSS

Data set [5] relates to T5, Myc-tagged GID-5 construct of Xaxin (amino acid residues 380-429).
T5 sequence: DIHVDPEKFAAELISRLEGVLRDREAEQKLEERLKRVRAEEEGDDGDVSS

Data set [6] concerns T6, Myc-tagged GID-6 construct of Xaxin (amino acid residues 380-404).
T6 sequence: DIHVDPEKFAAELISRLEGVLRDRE

Consider “Recombinantly-produced GSK-3 beta protein (New England Biolabs)”, for which, in data set [1], the “GSK-3 beta mediated phosphorylation of the GS-2 peptide derived from glycogen synthase, in vitro” value is recorded as “GID-2/his exhibited no significant effect on GSK-3 beta mediated phosphorylation of the GS-2 peptide” and the “phosphorylation of tau by GSK-3 beta, in vitro” value is “GID-2/his also did not inhibit phosphorylation of tau by GSK-3 beta, even when GID-2/his was present at a 200-fold molar excess”.

As for “GSK-3 beta (glycogen synthase kinase-3 beta) expressed in Xenopus oocytes”, the “GSK-3 beta mediated tau phosphorylation in Xenopus oocytes” value is “bound GSK-3 beta and inhibited GSK-3 beta mediated tau phosphorylation” in data set [2]; “did not bind GSK-3 beta and had no effect on GSK-3 beta activity” in data set [3]; “bound GSK-3 beta and inhibited GSK-3 beta mediated tau phosphorylation” in data set [4]; “bound GSK-3 beta and inhibited GSK-3 beta mediated tau phosphorylation” in data set [5]; “bound GSK-3 beta and inhibited GSK-3 beta mediated tau phosphorylation” in data set [6].
